Reference: publication PMC5454996

molecular target: recombinant Der p 1 (mature, enzymatically active cysteine protease) (house dust mite) (UniProt P08176); test: enzyme inhibition kinetics; steady-state velocities of Der p 1 at each propeptide concentration, pH 7, substrate Boc-Gln-Ala-Arg-AMC at 160 µM; KD calculated by Equation (4) because initial and steady-state velocities differed little

Kd | Molecule
130 nM | Der p 1 propeptide double mutant D51pA/E56pA, full-length (1-80) (domain or fragment)

molecular target: recombinant Der p 1 (mature, enzymatically active cysteine protease) (house dust mite) (UniProt P08176); test: enzyme inhibition kinetics; time-dependent inhibition of Der p 1 (5 nM) by propeptide (30–300 nM) at pH 7, fluorogenic substrate Boc-Gln-Ala-Arg-AMC; pre-steady-state kobs against propeptide concentration by linear regression gives KD Global, kon and koff; simple 1/1 stoichiometry assumed

Kd | koff | kon | Molecule
6 nM | 0.007 s⁻¹ | 1.2e+06 M⁻¹ s⁻¹ | Der p 1 propeptide mutant Y19pF, full-length (1-80) (domain or fragment)
15 nM | 0.007 s⁻¹ | 460000 M⁻¹ s⁻¹ | Der p 1 propeptide mutant K17pA, full-length (1-80) (domain or fragment)
5 nM | 0.007 s⁻¹ | 1.5e+06 M⁻¹ s⁻¹ | Der p 1 propeptide mutant E56pA, full-length (1-80) (domain or fragment)
37 nM | 0.017 s⁻¹ | 440000 M⁻¹ s⁻¹ | Der p 1 propeptide mutant D51pA, full-length (1-80) (domain or fragment)
7 nM | 0.0078 s⁻¹ | 1.1e+06 M⁻¹ s⁻¹ | Der p 1 propeptide, wild type, full-length (1-80) (domain or fragment)

molecular target: recombinant Der p 1 (mature, enzymatically active cysteine protease) (house dust mite) (UniProt P08176); test: not given

reduction of the initial Der p 1 activity (Boc-Gln-Ala-Arg-AMC hydrolysis) by tetrapeptide (10 mM) at pH 4 | Molecule
30% | NKSY [tetrapeptide NKSY (first half of the cleavage site NKSY19p–A20pTFE)]
80% | LNAE [tetrapeptide LNAE (first half of the cleavage site LNAE80p–T1NAC)]
45% | KYVQ [tetrapeptide KYVQ (first half of the cleavage site KYVQ40p–S41pNGG)]
75% | FDLN [tetrapeptide FDLN (first half of the cleavage site FDLN78p–A79pETN)]
